Measured values reported in patent publication US10227617B2, “Sequestration of carbon dioxide with hydrogen to useful products” (UNIVERSITY OF GEORGIA RESEARCH FOUNDATION, INC., priority 2012, dated 2019).

Experiments:
[1] = at 65 C; cited from earlier work
[2] = Scherf et al., 1993; cited from earlier work
[3] = substrate: C/C=C/C(=O)SCCNC(=O)CCNC(=O)[C@H](O)C(C)(C)COP(=O)(O)OP(=O)(O)OC[C@H]1O[C@@H](n2cnc3c(N)ncnc32)[C@H](O)[C@@H]1OP(=O)(O)O; assay: crotonyl-CoA hydratase reaction of Msed_0399, NAD+ reduction at 340 nm; type: biochemical, Metallosphaera sedula; conditions: other: Msed_0399 (C-CoA), 70° C., pH 7.0
Excerpt: (§1) The crotonyl-CoA hydratase/(S)-3-hydroxybutyrl-CoA dehydrogenase activity of a polypeptide may be determined by routine methods known in the art. An example of such a polypeptide includes an amino acid sequence encoded by coding sequence Msed_0399 of Genbank accession NC_009440 and disclosed at SEQ ID NO:16.
(§2) Heterologous expression of M. sedula genes in E. coli. Msed_0406, Msed_1321, Msed_0399, and Msed_0656 were amplified from genomic DNA using primers from IDT Technologies (Coralville, Iowa). Msed_0406 was cloned into pET46-Ek/LIC with an N-terminal His6 tag, as described in Example 1. Msed_1321 was cloned with an N-terminal His6 tag into a modified pETA vector, into which the anaerobic hya promoter from E. coli had been inserted to allow for anaerobically-regulated expression (Sun et al., 2010. PLoS One 5:e10526). Msed_0399 was cloned into pET21b without a His-tag, and Msed_0656 was cloned into pCDF-Ek/LIC with an N-terminal His6 tag. All four constructs were individually cloned into NovaBlue GigaSingles E. coli competent cells and selected by growth on LB-agar supplemented with antibiotic. Sequences were confirmed by Eton Biosciences, Inc. (Durham, N.C.). Next, the plasmids were transformed into E. coli Rosetta 2 (DE3) cells for protein expression. Rosetta strains containing pET46-0406, pET21b-0399, and pCDF-0656 were grown and expressed aerobically at 37° C. for 16 h in Studier's auto-inducing medium ZYM-5052 (Studier, 2005. Protein Expression and Purification 41:207-234). Rosetta cells containing pETA-1321 plasmid were grown in a 2 L Applikon bioreactor (37° C., 800 rpm, pH 6.7, 0.5 slpm air) in Studier's non-inducing medium ZYM-505 with 0.5 mM FeCl3. […]
(§3) Crotonyl-CoA hydratase/(S)-3-Hydroxybutyryl-CoA dehydrogenase (Msed_0399). […] Enzyme activity was measured spectrophotometrically at 70° C. by following NAD^+ reduction at 340 nm (extinction coeffienct at 340 nm=[…]) (Berg et al., 2007. Science 318:1782-1786). […]

[4] = substrate: C[C@H](O)CC(=O)SCCNC(=O)CCNC(=O)[C@H](O)C(C)(C)COP(=O)(O)OP(=O)(O)OC[C@H]1O[C@@H](n2cnc3c(N)ncnc32)[C@H](O)[C@@H]1OP(=O)(O)O; assay: (S)-3-hydroxybutyryl-CoA dehydrogenase reaction of Msed_0399, NAD+ reduction at 340 nm; type: biochemical, Metallosphaera sedula; conditions: other: Msed_0399 (3HB-CoA), 70° C., pH 7.0
Excerpt: as §1, §2, §3

[5] = Crotonyl-CoA hydratase assay, NAD+ reduction at 340 nm; type: biochemical; conditions: C-CoA, hydratase reaction; 70° C
Experimental: (§4) Crotonyl-CoA hydratase/(S)-3-Hydroxybutyryl-CoA dehydrogenase (Msed_0399). The enzyme was purified first using a Q-sepharose HiLoad 16/10 anion exchange column (GE Healthcare). The protein was loaded onto the column with 20 mM Tris, pH 8.0, and eluted with 20 mM Tris, 1 M NaCl, pH 8.0 using a linear elution gradient. Fractions containing Msed_0399 were confirmed with SDS-PAGE, collected and dialyzed into buffer for size exclusion chromatography (50 mM potassium phosphate, 150 mM NaCl, pH 7.0). The partially-purified protein was further separated on a HiLoad 26/600 Superdex 200 PG column, and the elution fractions containing Msed_0399 were collected, concentrated, and dialyzed into reaction buffer (100 mM MOPS, pH 7.5), and then either stored at 4° C. for immediate use or mixed with glycerol to 20% and stored at −20° C. Enzyme activity was measured spectrophotometrically at 70° C. by following NAD^+ reduction at 340 nm (extinction coeffienct at 340 nm=[…]) (Berg et al., 2007. Science 318:1782-1786). The assay mixture contained 20 mM MOPS (pH 7.0), 5 mM MgCl2, 2 mM NAD^+, 0.5 mM crotonyl-CoA or (S)-3-hydroxybutyryl-CoA, and purified enzyme. The reaction mixture was preheated for 2 min at 70° C. and the reaction initiated by addition of substrate.

[6] = (S)-3-Hydroxybutyryl-CoA dehydrogenase assay, NAD+ reduction at 340 nm; type: biochemical; conditions: 3HB-CoA, dehydrogenase reaction; 70° C
Experimental: as §4

[7] = 4-hydroxybutyryl-CoA dehydratase coupled spectrophotometric assay; type: biochemical; conditions: 70° C
Experimental: (§5) 4-hydroxybutyryl-CoA dehydratase (Msed_1321). The enzyme was purified using a 5 ml Bio-Scale Mini Profinity IMAC cartridge (Bio-Rad). The soluble, heat-treated lysate was loaded onto the column with binding buffer (50 mM Tris, 300 mM NaCl, 3.5 mM DTT, 20 mM imidazole, pH 8.0) and the his-tagged enzyme removed with elution buffer (50 mM Tris, 300 mM NaCl, 3.5 mM DTT, 500 mM imidazole, pH 8.0). The fraction collector was positioned inside the anaerobic chamber, and fractions containing enzyme were collected, concentrated, and dialyzed into reaction buffer (100 mM potassium phosphate, pH 7.5, 1 mM DTT). The enzyme solution was either stored at room temperature inside the anaerobic chamber for immediate use or mixed with glycerol to 20% and stored at −20° C. in a sealed vacuum dessicator. Enzyme activity was measured aerobically in a coupled spectrophotometric assay at 70° C. The assay mixture contained 20 mM sodium phosphate, 5 mM MgCl2, 2 mM 4HB, 2 mM ATP, 1 mM CoA, 2 mM NAD^+, 1 mM DTT, 1 mg/ml purified Msed_0406, and 42 ng/ml Msed_0399. The reaction mixture was pre-heated for 5 min at 70° C. to allow accumulation of 4HB-CoA, and then initiated by addition of purified Msed_1321. For the oxygen-sensitivity assay, Msed_1321 was washed with 100 mM potassium phosphate, pH 7.5, to remove any DTT from the reaction buffer. […]

[8] = Oxygen-sensitivity assay of 4-hydroxybutyryl-CoA dehydratase; conditions: exposed to air
Experimental: as §5

[9] = Acetoacetyl-CoA β-ketothiolase discontinuous DTNB assay; type: biochemical; conditions: 70° C
[10] = substrate: CC(=O)CC(=O)SCCNC(=O)CCNC(=O)[C@H](O)C(C)(C)COP(=O)(O)OP(=O)(O)OC[C@H]1O[C@@H](n2cnc3c(N)ncnc32)[C@H](O)[C@@H]1OP(=O)(O)O; assay: purified protein, by the assay type; conditions: other: Msed_0656, 70° C., pH 7.5; 70.0 °C

O=C(O)O [carbonic acid]
apparent pKa of the ionization to bicarbonate [1]: about 6.3

B1: clostridal homolog: 4-hydroxybutyryl-CoA dehydratase from Clostridium aminobutyricum (protein, UniProt P55792 1-490, looked up)
4-hydroxybutyryl-CoA …: MLMTAEQYIESLRKLNTRVYMFGEKIENWVDHPMIRPSINCVAMTYELAQDPQYADLMTTKSNLIGKTINRFANLHQSTDDLRKKVKMQRLLGQKTASCFQRCVGMDAFNAVFSTTYEIDQKYGTNYHKNFTEYLKYIQENDLIVDGAMTDPKGDRGLAPSAQKDPDLFLRIVEKREDGIVVRGAKAHQTGSINSHEHIIMPTIAMTEADKDYAVSFACPSDADGLFMIYGRQSCDTRKMEEGADIDLGNKQFGGQEALVVFDNVFIPNDRIFLCQEYDFAGMMVERFAGYHRQSYGGCKVGVGDVVIGAAALAADYNGAQKASHVKDKLIEMTHLNETLYCCGIACSAEGYPTAAGNYQIDLLLANVCKQNITRFPYEIVRLAEDIAGGLMVTMPSEADFKSETVVGRDGETIGDFCNKFFAAAPTCTTEERMRVLRFLENICLGASAVGYRTESMHGAGSPQAQRIMIARQGNINAKKELAKAIAGIK
time to irreversible inactivation when exposed to air [2]: ~25 min

B2: Metallosphaera sedula crotonyl-CoA hydratase/(S)-3-hydroxybutyryl-CoA dehydrogenase Msed_0399, SEQ ID NO:16, recombinant (Metallosphaera sedula DSM 5348) (protein)
chain: MKVTVIGSGVMGHGIAELAAIAGNEVWMNDISTEILQQAMERIKWSLSKLRESGSLKEGVEQVLARIHPETDQAQALKGSDFVIEAVKEDLELKRTIFRNAEAHASPSAVLATNTSSLPISEIASVLKSPQRVVGMHFFNPPVLMPLVEIVRGKDTSDEVVKTTAEMAKSMNKETIVVKDVPGFFVNRVLLRIMEAGCYLVEKGIASIQEVDSSAIEELGFPMGVFLLADYTGLDIGYSVWKAVTARGFKAFPCSSTEKLVSQGKLGVKSGSGYYQYPSPGKFVRPTLPSTSKKLGRYLISPAVNEVSYLLREGIVGKDDAEKGCVLGLGLPKGILSYADEIGIDVVVNTLEEMRQTSGMDHYSPDPLLLSMVKEGKLGRKSGQGFHTYAHEEAKYSTIVVRVEPPLAWIVLNRPTRYNAINGDMIREINQALDSLEEREDVRVIAITGQGRVFSAGADVTEFGSLTPVKAMIASRKFHEVFMKIQFLTKPVIAVINGLALGGGMELALSADFRVASKTAEMGQPEINLGLIPGGGGTQRLSRLSGRKGLELVLTGRRVKAEEAYRLGIVEFLAEPEELESEVRKLANAIAEKSPLAVASAKLAYKLGEETHIWTGTSLEASLFGLLFSTKDFEEGVRAFLEKRKPNFRGE
Km [3]: 70 µM
Vmax [3]: 20 µmol/min/mg
kcat [3]: 19 s⁻¹
Km [4]: 60 µM
Vmax [4]: 16 µmol/min/mg
kcat [4]: 15 s⁻¹
Vmax [5]: 20 µmol/min/mg
Vmax [6]: 16 µmol/min/mg

B3: Msed_1321: M. sedula 4-hydroxybutyryl-CoA dehydratase, SEQ ID NO:15 (protein, listed as Metallosphaera sedula)
chain: MVVRTGEQYLQSISNRSKVEIYVMGREVKDVTKHPFLKPSVMSFKATFDAAWEEDTKELGRAWSPYLEEEINRFNHIHRSPDDLAAKVKLLRKLSHKTGACFQRCVGWDSLNTLHIVTTMMAKKGKTEVRDRFVEYLKYVQKNDLALAGAMTDAKGIRNLKPSQQPNKNAYLRITEVTKDGIYVSGAKANITGVAATEEMVVLPTRAMGPEDKDYAVAFAIPTDTEGVKIVVGRQLNDARRMEEGEIDGLPYFYNHEGLVIFDNVFVPMNRVFLAGEWEYTGTLVEIFSAYHRQGYGGCKAGLGDVIIGASADLAKQIGVDRASHVQDKLTEMIFLTETMYSAGIAASLNAVKMCDNCWWVNPMHANVTKHLVARFPSQIAQLSIDLAGGIVGTAPSEWDLKNPKLKEYISRYLQGAEDFTAEDRLRMVRLVENVSMGVAFQIESVHGAGSPAAQRIMFSRLYDLNFAQEVAKKLAGRKSEVKFTSKAEPWRESQSEAEAKEAGLKS
Vmax [7]: 2.2 µmol/min/mg
duration of initial activation upon exposure to air [8]: about 15 hours

B4: Metallosphaera sedula acetoacetyl-CoA β-ketothiolase Msed_0656, SEQ ID NO:17, recombinant (Metallosphaera sedula DSM 5348) (protein)
chain: MPDVYIVSAVRTPIGRFGGSLKSVKPQMLGAIAIKEALRRANTDPSRVELTIMGNVLRSGHGQDLARQAALLAGIPWEVDGYCVDMVCSSGMMGVTNAAQMIKSGDADVVVAGGMESMSQSMLAVNSEVRWGVKFLSGKSLNFIDTMLVDGLTDPFNLKLMGQEADMVARERDISRRELDEVAFESHRRAHQAWEKGLFKSEVIPVNLDEGKLERDEGIRPDTTMEKLSSLKPAFTENGYHTAGNSSQISDGAVAMVLMSEKAVKEFGVDPVAKILGYSWVGIESWRFTEAPLYSVRKLLTRLNMNITQFDYFENNEAFAVNNVLFHRYLGVPYDQLNVFGGAIALGHPIGASGARIMVTLLNVLSKMNATRGIASICHGVGGSTAIALELLRPL
Vmax [9]: 1400 µmol/min/mg
Km [10]: 180 µM
Vmax [10]: 1400 µmol/min/mg
kcat [10]: 1000 s⁻¹
